According to patent US20130184211A1 (NEW YORK UNIVERSITY, published 2013):

T1: 1:1 binary complex of the ectodomains of FGFR1c and Klotho (human; murine, UniProt O35082 35-982)
T1 construct: range 35-982; also called FGFR1c-Klotho complex; binary FGFR1c-Klotho complex; not shown: C-terminal FLAG tag
T1 sequence 1: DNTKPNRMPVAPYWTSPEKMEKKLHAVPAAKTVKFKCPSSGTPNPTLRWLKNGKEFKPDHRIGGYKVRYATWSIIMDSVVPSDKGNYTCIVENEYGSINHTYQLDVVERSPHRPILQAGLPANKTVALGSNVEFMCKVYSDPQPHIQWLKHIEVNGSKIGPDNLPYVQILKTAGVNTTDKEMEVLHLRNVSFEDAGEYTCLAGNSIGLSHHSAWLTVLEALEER
T1 sequence 2: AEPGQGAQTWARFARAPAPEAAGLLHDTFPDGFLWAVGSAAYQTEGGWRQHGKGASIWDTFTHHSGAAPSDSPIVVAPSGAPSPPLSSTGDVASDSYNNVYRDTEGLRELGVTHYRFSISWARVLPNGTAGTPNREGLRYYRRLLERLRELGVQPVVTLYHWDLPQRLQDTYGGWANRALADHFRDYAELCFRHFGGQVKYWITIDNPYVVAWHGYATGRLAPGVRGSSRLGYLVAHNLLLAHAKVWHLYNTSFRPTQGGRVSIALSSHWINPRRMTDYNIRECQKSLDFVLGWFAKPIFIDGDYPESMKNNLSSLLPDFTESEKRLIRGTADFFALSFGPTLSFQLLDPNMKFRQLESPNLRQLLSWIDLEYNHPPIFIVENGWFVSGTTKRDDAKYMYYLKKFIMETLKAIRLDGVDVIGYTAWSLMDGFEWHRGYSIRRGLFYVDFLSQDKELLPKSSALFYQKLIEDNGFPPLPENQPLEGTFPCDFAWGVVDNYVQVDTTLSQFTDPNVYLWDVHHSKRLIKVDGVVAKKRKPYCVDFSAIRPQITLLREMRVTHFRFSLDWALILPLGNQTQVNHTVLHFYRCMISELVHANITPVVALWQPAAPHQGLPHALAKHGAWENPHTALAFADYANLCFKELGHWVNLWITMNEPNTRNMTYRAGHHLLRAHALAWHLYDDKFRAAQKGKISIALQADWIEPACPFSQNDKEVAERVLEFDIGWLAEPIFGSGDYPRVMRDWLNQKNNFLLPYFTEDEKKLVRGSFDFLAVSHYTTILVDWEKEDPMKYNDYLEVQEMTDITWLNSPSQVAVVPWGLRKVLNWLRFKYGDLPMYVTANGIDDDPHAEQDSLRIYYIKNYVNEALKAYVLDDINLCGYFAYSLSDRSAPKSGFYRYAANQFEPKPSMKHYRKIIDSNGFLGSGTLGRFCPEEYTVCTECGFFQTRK

T2: ectodomain of murine Klotho (A35 to K982) with C-terminal FLAG tag (murine, UniProt O35082 35-982)
T2 construct: range 35-982; Purified from culture media of HEK293 cells; also called Klotho ectodomain; not shown: C-terminal FLAG tag
T2 sequence (looked up): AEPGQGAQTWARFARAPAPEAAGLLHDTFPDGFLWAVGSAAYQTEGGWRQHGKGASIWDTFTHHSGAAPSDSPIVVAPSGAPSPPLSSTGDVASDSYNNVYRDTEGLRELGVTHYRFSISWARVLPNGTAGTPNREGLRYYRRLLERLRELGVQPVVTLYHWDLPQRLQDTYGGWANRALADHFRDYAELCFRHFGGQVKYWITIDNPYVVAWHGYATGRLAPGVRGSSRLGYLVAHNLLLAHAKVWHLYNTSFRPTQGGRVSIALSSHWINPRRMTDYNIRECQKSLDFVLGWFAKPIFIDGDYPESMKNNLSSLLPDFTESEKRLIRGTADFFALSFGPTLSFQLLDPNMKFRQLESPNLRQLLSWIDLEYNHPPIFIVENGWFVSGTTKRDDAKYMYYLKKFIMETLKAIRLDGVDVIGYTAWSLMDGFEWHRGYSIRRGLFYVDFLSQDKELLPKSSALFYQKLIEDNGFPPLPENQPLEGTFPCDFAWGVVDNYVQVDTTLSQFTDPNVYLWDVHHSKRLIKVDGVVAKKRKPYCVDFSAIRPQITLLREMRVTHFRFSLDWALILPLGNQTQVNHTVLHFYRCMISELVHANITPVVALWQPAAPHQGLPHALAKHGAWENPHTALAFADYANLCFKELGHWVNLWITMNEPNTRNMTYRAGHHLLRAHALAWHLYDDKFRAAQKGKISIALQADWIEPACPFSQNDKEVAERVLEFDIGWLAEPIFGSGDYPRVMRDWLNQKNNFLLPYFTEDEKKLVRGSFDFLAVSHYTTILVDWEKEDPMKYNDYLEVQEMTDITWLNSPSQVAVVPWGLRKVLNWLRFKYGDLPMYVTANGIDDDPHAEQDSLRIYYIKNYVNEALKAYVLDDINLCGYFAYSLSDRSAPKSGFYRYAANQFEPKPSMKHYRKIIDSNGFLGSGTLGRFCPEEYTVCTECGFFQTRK


What was measured:
[1] = biological target: T1, 1:1 binary complex of the ectodomains …; assay: SPR competition dose-response: FGF23^28-251 mixed with a fixed concentration of FGFR1c-Klotho, immobilized FGF23^28-251 as competitor; averaged data of two to three experiments
Source text: For each protein injection over a Klotho chip, the nonspecific responses from the β-glucuronidase control flow channel were subtracted from the responses recorded for the Klotho flow channel. Similarly, for each protein injection over a FGF chip, the nonspecific responses from the FHF1B control flow channel were subtracted from the responses recorded for the FGF flow channel. Each set of experiments was repeated at least three times, and for each experiment, at least two protein injections were repeated two to five times to monitor chip performance and to verify reproducibility of the binding responses.
To examine whether the C-terminal tail of FGF23 can compete with full-length FGF23 for binding to the binary FGFR1c-Klotho complex, two assay formats were employed. In one assay, FGF23²⁸⁻²⁵¹ was immobilized on a chip (˜16-53 fmole/mm² of flow channel). Increasing concentrations of FGF23¹⁸⁰⁻²⁵¹ (0-400 nM) were mixed with a fixed concentration of 1:1 complex of the ectodomains of FGFR1c and Klotho (10 nM, 15 nM and 20 nM, respectively) in HBS-EP buffer, and the mixtures were passed over the chip. As a control, competition of FGF23 in solution with immobilized FGF23 for binding to the binary FGFR1c-Klotho complex was studied. […]

[2] = biological target: T1, 1:1 binary complex of the ectodomains …; assay: SPR competition; competitor FGF23^28-251 immobilized, fixed FGFR1c-Klotho complex
Description: Increasing concentrations of FGF23²⁸⁻²⁵¹ (0-50 nM) were mixed with a fixed concentration of 1:1 complex of the ectodomains of FGFR1c and Klotho (15 nM and 20 nM, respectively) in HBS-EP buffer, and the mixtures were passed over the FGF23 chip. In the other—reverse—assay, FGF23¹⁸⁰⁻²⁵¹ was immobilized on a chip (˜48.4 fmole/mm² of flow channel). Increasing concentrations of FGF23²⁸⁻²⁵¹ (0-50 nM) were mixed with a fixed concentration of 1:1 complex of the ectodomains of FGFR1c and Klotho (20 nM) in HBS-EP buffer, and the mixtures were passed over the chip. As a control, competition of FGF23 C-terminal tail peptide in solution with immobilized FGF23 C-terminal tail peptide for binding to the binary FGFR1c-Klotho complex was studied. Increasing concentrations of FGF23¹⁸⁰⁻²⁵¹ (0-400 nM) were mixed with a fixed concentration of 1:1 complex of the ectodomains of FGFR1c and Klotho (20 nM) in HBS-EP buffer, and the mixtures were passed over the FGF23¹⁸⁰⁻²⁵¹ chip.
To fully nail down that the C-terminal tail of FGF23 mediates FGF23 binding to the binary FGFR1c-Klotho complex, a fixed concentration of FGFR1c-Klotho was mixed with increasing concentrations of FGF23¹⁸⁰⁻²⁵¹, and the mixtures were passed over the FGF23 chip. Mixtures of FGF23²⁸⁻²⁵¹ with FGFR1c-Klotho were used as a control. […] Similar results were obtained using the “reverse” SPR assay format, where FGF23¹⁸⁰⁻²⁵¹ was immobilized on a chip and mixtures of a fixed concentration of FGFR1c-Klotho complex with increasing concentrations of FGF23²⁸⁻²⁵¹ were passed over the chip (FIG. 3E). Mixtures of FGF23¹⁸⁰⁻²⁵¹ with FGFR1c-Klotho were used as a control (FIG. 3F). To verify the specificity of the interaction between the FGF23 C-terminal tail and the FGFR1c-Klotho complex, the C-terminal tail peptide of FGF21 and FGFR1c-Klotho were mixed at molar ratios of 6:1 and 10:1, and the mixtures were injected over a FGF23 chip.

[3] = biological target: T2, ectodomain of murine Klotho (A35 to …); assay: SPR; Klotho ectodomain immobilized, increasing FGFR1c ectodomain injected; fitted saturation binding curve
Description: Proteins were immobilized by amine coupling on flow channels of research grade CMS chips (Biacore AB). Proteins were injected over a CMS chip at a flow rate of 50 μl min⁻¹, and at the end of each protein injection (180 s), HBS-EP buffer (50 μl min⁻¹) was flowed over the chip to monitor dissociation for 180 s. The chip surface was then regenerated by injecting 50 μl of 2.0 M NaCl in 10 mM sodium acetate, pH 4.5. […] For each protein injection over a Klotho chip, the nonspecific responses from the β-glucuronidase control flow channel were subtracted from the responses recorded for the Klotho flow channel. Similarly, for each protein injection over a FGF chip, the nonspecific responses from the FHF1B control flow channel were subtracted from the responses recorded for the FGF flow channel. Each set of experiments was repeated at least three times, and for each experiment, at least two protein injections were repeated two to five times to monitor chip performance and to verify reproducibility of the binding responses.
The size-exclusion data showing that Klotho and FGFR1c ectodomains form a stable binary complex (FIG. 1B) indicate that Klotho must harbor a high affinity binding site for FGFR1c. To further confirm this, surface plasmon resonance (SPR) spectroscopy was used to determine the dissociation constant of the FGFR1c-Klotho interaction. […]

IC50 (read off the curve) [1] | molar amount relative to FGFR1c-Klotho complex at 50% inhibition [2] | Kd [3] | Binder
~20 nM | < 1 fold molar amount |  | human FGF23 (A28 to I251), FGF23^28-251, with R176Q and R179Q (ligand, also called full-length FGF23) ASPLLGSSWGGLIHLYTATARNSYHLQIHKNGHVDGAPHQTIYSALMIRSEDAGFVVITGVMSRRYLCMDFRGNIFGSHYFDPENCRFQHQTLENGYDVYHSPQYHFLVSLGRAKRAFLPGMNPPPYSQFLSRRNEIPLIHFNTPIPRQHTQSAEDDSERDPLNVLKPRARMTPAPASCSQELPSAEDNSPMASDPLGVVRGGRVNTHAGGTGPEGCRPFAKFI
 |  | 72 nM | ligand-binding domain of human FGFR1c (D142 to R365) (receptor, Expressed in E. coli; also called FGFR1c ectodomain) DNTKPNRMPVAPYWTSPEKMEKKLHAVPAAKTVKFKCPSSGTPNPTLRWLKNGKEFKPDHRIGGYKVRYATWSIIMDSVVPSDKGNYTCIVENEYGSINHTYQLDVVERSPHRPILQAGLPANKTVALGSNVEFMCKVYSDPQPHIQWLKHIEVNGSKIGPDNLPYVQILKTAGVNTTDKEMEVLHLRNVSFEDAGEYTCLAGNSIGLSHHSAWLTVLEALEER
